Experimental data from patent US20260001928A1 (CORTERIA PHARMACEUTICALS, priority 2022, published 2026).
*1 amine or outer side, *2 acyl side, *3 side chain or, on linkers, in order; H or OH if unused. Where no end group is shown, it is not given here. Side-chain parts run from the residue outwards. [ ]: non-standard residue; d: D form. The star is where a group is joined. C16 diacid = O=C(O)CCCCCCCCCCCCCCC(=O)*; γGlu = O=C(O)[C@H](CCC(=O)[*:2])N[*:1]; NMeI = CC[C@H](C)[C@H](NC)C(=O)O; Api = NC1(C(=O)O)CCNCC1; Aib = CC(C)(N)C(=O)O

Experiments:
CRF1R receptor = target: T1, CRF1R receptor (UniProt P34998 24-415, limits assumed); assay: cell-based or functional assay
T1 sequence (looked up): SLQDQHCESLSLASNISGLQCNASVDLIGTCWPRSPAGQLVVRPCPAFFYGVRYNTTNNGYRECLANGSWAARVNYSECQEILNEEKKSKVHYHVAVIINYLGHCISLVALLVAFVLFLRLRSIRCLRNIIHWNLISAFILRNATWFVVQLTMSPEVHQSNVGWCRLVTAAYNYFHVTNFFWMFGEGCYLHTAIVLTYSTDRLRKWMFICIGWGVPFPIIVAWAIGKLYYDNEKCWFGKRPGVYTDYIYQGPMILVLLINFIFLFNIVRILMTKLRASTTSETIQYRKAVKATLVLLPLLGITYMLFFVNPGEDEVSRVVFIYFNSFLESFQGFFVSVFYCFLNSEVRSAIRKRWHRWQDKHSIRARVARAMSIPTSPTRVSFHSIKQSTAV

[1] = target: human corticotropin-releasing factor 2a (CRF2a receptor) (human), Q13324; assay: cell-based or functional assay
human corticotropin-releasing factor 2a (CRF2a receptor) (human), Q13324, sequence (Q13324 20-411): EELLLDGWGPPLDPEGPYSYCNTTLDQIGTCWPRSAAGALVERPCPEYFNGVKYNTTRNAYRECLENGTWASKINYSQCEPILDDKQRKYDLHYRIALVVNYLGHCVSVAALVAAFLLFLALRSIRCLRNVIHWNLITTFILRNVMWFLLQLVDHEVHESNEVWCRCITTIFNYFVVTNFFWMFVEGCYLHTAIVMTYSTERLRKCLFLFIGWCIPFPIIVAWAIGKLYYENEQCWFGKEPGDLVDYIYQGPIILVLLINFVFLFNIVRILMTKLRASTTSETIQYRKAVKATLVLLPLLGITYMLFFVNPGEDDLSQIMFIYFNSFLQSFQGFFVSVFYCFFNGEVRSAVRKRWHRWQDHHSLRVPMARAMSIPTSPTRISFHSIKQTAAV

B1: SEQ ID NO 153 (peptide)
peptide: Ac-IVLSLD[dV]PIKLK([γGlu-C16 diacid])KILLEQEKQK[Aib]QREQAETN[Api]QILAQV-NH2
SMILES: CC[C@H](C)[C@H](NC(C)=O)C(=O)N[C@H](C(=O)N[C@@H](CC(C)C)C(=O)N[C@@H](CO)C(=O)N[C@@H](CC(C)C)C(=O)N[C@@H](CC(=O)O)C(=O)N[C@@H](C(=O)N1CCC[C@H]1C(=O)N[C@H](C(=O)N[C@@H](CCCCN)C(=O)N[C@@H](CC(C)C)C(=O)N[C@@H](CCCCNC(=O)CC[C@H](NC(=O)CCCCCCCCCCCCCCC(=O)O)C(=O)O)C(=O)N[C@@H](CCCCN)C(=O)N[C@H](C(=O)N[C@@H](CC(C)C)C(=O)N[C@@H](CC(C)C)C(=O)N[C@@H](CCC(=O)O)C(=O)N[C@@H](CCC(N)=O)C(=O)N[C@@H](CCC(=O)O)C(=O)N[C@@H](CCCCN)C(=O)N[C@@H](CCC(N)=O)C(=O)N[C@@H](CCCCN)C(=O)NC(C)(C)C(=O)N[C@@H](CCC(N)=O)C(=O)N[C@@H](CCCNC(=N)N)C(=O)N[C@@H](CCC(=O)O)C(=O)N[C@@H](CCC(N)=O)C(=O)N[C@@H](C)C(=O)N[C@@H](CCC(=O)O)C(=O)N[C@H](C(=O)N[C@@H](CC(N)=O)C(=O)NC1(C(=O)N[C@@H](CCC(N)=O)C(=O)N[C@H](C(=O)N[C@@H](CC(C)C)C(=O)N[C@@H](C)C(=O)N[C@@H](CCC(N)=O)C(=O)N[C@H](C(N)=O)C(C)C)[C@@H](C)CC)CCNCC1)[C@@H](C)O)[C@@H](C)CC)[C@@H](C)CC)C(C)C)C(C)C
Emax (% I) (CRF1R receptor): 22% | EC50 [nM] (cAMP) [1]: 0.41 nM

B2: SEQ ID NO 75 (peptide)
peptide: [NMeI]VLSLD[dV]PIKLK([γGlu-C16 diacid])KILLEQEKQK[Aib]QREQAETN[Aib]QILAQV-NH2
modifications: N-terminus assumed
SMILES: CC[C@H](C)[C@H](NC)C(=O)N[C@H](C(=O)N[C@@H](CC(C)C)C(=O)N[C@@H](CO)C(=O)N[C@@H](CC(C)C)C(=O)N[C@@H](CC(=O)O)C(=O)N[C@@H](C(=O)N1CCC[C@H]1C(=O)N[C@H](C(=O)N[C@@H](CCCCN)C(=O)N[C@@H](CC(C)C)C(=O)N[C@@H](CCCCNC(=O)CC[C@H](NC(=O)CCCCCCCCCCCCCCC(=O)O)C(=O)O)C(=O)N[C@@H](CCCCN)C(=O)N[C@H](C(=O)N[C@@H](CC(C)C)C(=O)N[C@@H](CC(C)C)C(=O)N[C@@H](CCC(=O)O)C(=O)N[C@@H](CCC(N)=O)C(=O)N[C@@H](CCC(=O)O)C(=O)N[C@@H](CCCCN)C(=O)N[C@@H](CCC(N)=O)C(=O)N[C@@H](CCCCN)C(=O)NC(C)(C)C(=O)N[C@@H](CCC(N)=O)C(=O)N[C@@H](CCCNC(=N)N)C(=O)N[C@@H](CCC(=O)O)C(=O)N[C@@H](CCC(N)=O)C(=O)N[C@@H](C)C(=O)N[C@@H](CCC(=O)O)C(=O)N[C@H](C(=O)N[C@@H](CC(N)=O)C(=O)NC(C)(C)C(=O)N[C@@H](CCC(N)=O)C(=O)N[C@H](C(=O)N[C@@H](CC(C)C)C(=O)N[C@@H](C)C(=O)N[C@@H](CCC(N)=O)C(=O)N[C@H](C(N)=O)C(C)C)[C@@H](C)CC)[C@@H](C)O)[C@@H](C)CC)[C@@H](C)CC)C(C)C)C(C)C
Emax (% I) (CRF1R receptor): 3% | EC50 [nM] (cAMP) [1]: 0.19 nM

B3: SEQ ID NO 152 (peptide)
peptide: Ac-IVLSLD[dV]PIKLK([γGlu-C16 diacid])KILLEQEKQKAQREQAETN[Api]QILAQV-NH2
SMILES: CC[C@H](C)[C@H](NC(C)=O)C(=O)N[C@H](C(=O)N[C@@H](CC(C)C)C(=O)N[C@@H](CO)C(=O)N[C@@H](CC(C)C)C(=O)N[C@@H](CC(=O)O)C(=O)N[C@@H](C(=O)N1CCC[C@H]1C(=O)N[C@H](C(=O)N[C@@H](CCCCN)C(=O)N[C@@H](CC(C)C)C(=O)N[C@@H](CCCCNC(=O)CC[C@H](NC(=O)CCCCCCCCCCCCCCC(=O)O)C(=O)O)C(=O)N[C@@H](CCCCN)C(=O)N[C@H](C(=O)N[C@@H](CC(C)C)C(=O)N[C@@H](CC(C)C)C(=O)N[C@@H](CCC(=O)O)C(=O)N[C@@H](CCC(N)=O)C(=O)N[C@@H](CCC(=O)O)C(=O)N[C@@H](CCCCN)C(=O)N[C@@H](CCC(N)=O)C(=O)N[C@@H](CCCCN)C(=O)N[C@@H](C)C(=O)N[C@@H](CCC(N)=O)C(=O)N[C@@H](CCCNC(=N)N)C(=O)N[C@@H](CCC(=O)O)C(=O)N[C@@H](CCC(N)=O)C(=O)N[C@@H](C)C(=O)N[C@@H](CCC(=O)O)C(=O)N[C@H](C(=O)N[C@@H](CC(N)=O)C(=O)NC1(C(=O)N[C@@H](CCC(N)=O)C(=O)N[C@H](C(=O)N[C@@H](CC(C)C)C(=O)N[C@@H](C)C(=O)N[C@@H](CCC(N)=O)C(=O)N[C@H](C(N)=O)C(C)C)[C@@H](C)CC)CCNCC1)[C@@H](C)O)[C@@H](C)CC)[C@@H](C)CC)C(C)C)C(C)C
Emax (% I) (CRF1R receptor): 25% | EC50 [nM] (cAMP) [1]: 0.51 nM

VLSLD[dV]PIKLK([γGlu-C16 diacid])QILLKQERQKKQREQAEKNKQILEQV-NH2 [SEQ ID NO 4]
EC50 (CRF1R receptor): > 250 nM | Emax (% I) (CRF1R receptor): 4% | EC50 [nM] (cAMP) [1]: 0.44 nM

B4: SEQ ID NO 154 (peptide)
peptide: [NMeI]VLSLD[dV]PIKLK([γGlu-C16 diacid])KILLEQEKQKAQREQAETN[Api]QILAQV-NH2
modifications: N-terminus assumed
SMILES: CC[C@H](C)[C@H](NC)C(=O)N[C@H](C(=O)N[C@@H](CC(C)C)C(=O)N[C@@H](CO)C(=O)N[C@@H](CC(C)C)C(=O)N[C@@H](CC(=O)O)C(=O)N[C@@H](C(=O)N1CCC[C@H]1C(=O)N[C@H](C(=O)N[C@@H](CCCCN)C(=O)N[C@@H](CC(C)C)C(=O)N[C@@H](CCCCNC(=O)CC[C@H](NC(=O)CCCCCCCCCCCCCCC(=O)O)C(=O)O)C(=O)N[C@@H](CCCCN)C(=O)N[C@H](C(=O)N[C@@H](CC(C)C)C(=O)N[C@@H](CC(C)C)C(=O)N[C@@H](CCC(=O)O)C(=O)N[C@@H](CCC(N)=O)C(=O)N[C@@H](CCC(=O)O)C(=O)N[C@@H](CCCCN)C(=O)N[C@@H](CCC(N)=O)C(=O)N[C@@H](CCCCN)C(=O)N[C@@H](C)C(=O)N[C@@H](CCC(N)=O)C(=O)N[C@@H](CCCNC(=N)N)C(=O)N[C@@H](CCC(=O)O)C(=O)N[C@@H](CCC(N)=O)C(=O)N[C@@H](C)C(=O)N[C@@H](CCC(=O)O)C(=O)N[C@H](C(=O)N[C@@H](CC(N)=O)C(=O)NC1(C(=O)N[C@@H](CCC(N)=O)C(=O)N[C@H](C(=O)N[C@@H](CC(C)C)C(=O)N[C@@H](C)C(=O)N[C@@H](CCC(N)=O)C(=O)N[C@H](C(N)=O)C(C)C)[C@@H](C)CC)CCNCC1)[C@@H](C)O)[C@@H](C)CC)[C@@H](C)CC)C(C)C)C(C)C
Emax (% I) (CRF1R receptor): 24% | EC50 [nM] (cAMP) [1]: 0.52 nM

B5: SEQ ID NO 155 (peptide)
peptide: [NMeI]VLSLD[dV]PIKLK([γGlu-C16 diacid])KILLEQEKQK[Aib]QREQAETN[Api]QILAQV-NH2
modifications: N-terminus assumed
SMILES: CC[C@H](C)[C@H](NC)C(=O)N[C@H](C(=O)N[C@@H](CC(C)C)C(=O)N[C@@H](CO)C(=O)N[C@@H](CC(C)C)C(=O)N[C@@H](CC(=O)O)C(=O)N[C@@H](C(=O)N1CCC[C@H]1C(=O)N[C@H](C(=O)N[C@@H](CCCCN)C(=O)N[C@@H](CC(C)C)C(=O)N[C@@H](CCCCNC(=O)CC[C@H](NC(=O)CCCCCCCCCCCCCCC(=O)O)C(=O)O)C(=O)N[C@@H](CCCCN)C(=O)N[C@H](C(=O)N[C@@H](CC(C)C)C(=O)N[C@@H](CC(C)C)C(=O)N[C@@H](CCC(=O)O)C(=O)N[C@@H](CCC(N)=O)C(=O)N[C@@H](CCC(=O)O)C(=O)N[C@@H](CCCCN)C(=O)N[C@@H](CCC(N)=O)C(=O)N[C@@H](CCCCN)C(=O)NC(C)(C)C(=O)N[C@@H](CCC(N)=O)C(=O)N[C@@H](CCCNC(=N)N)C(=O)N[C@@H](CCC(=O)O)C(=O)N[C@@H](CCC(N)=O)C(=O)N[C@@H](C)C(=O)N[C@@H](CCC(=O)O)C(=O)N[C@H](C(=O)N[C@@H](CC(N)=O)C(=O)NC1(C(=O)N[C@@H](CCC(N)=O)C(=O)N[C@H](C(=O)N[C@@H](CC(C)C)C(=O)N[C@@H](C)C(=O)N[C@@H](CCC(N)=O)C(=O)N[C@H](C(N)=O)C(C)C)[C@@H](C)CC)CCNCC1)[C@@H](C)O)[C@@H](C)CC)[C@@H](C)CC)C(C)C)C(C)C
Emax (% I) (CRF1R receptor): 26% | EC50 [nM] (cAMP) [1]: 0.51 nM

B6: SEQ ID NO 74 (peptide)
peptide: [NMeI]VLSLD[dV]PIKLK([γGlu-C16 diacid])KILLEQEKQKAQREQAETN[Aib]QILAQV-NH2
modifications: N-terminus assumed
SMILES: CC[C@H](C)[C@H](NC)C(=O)N[C@H](C(=O)N[C@@H](CC(C)C)C(=O)N[C@@H](CO)C(=O)N[C@@H](CC(C)C)C(=O)N[C@@H](CC(=O)O)C(=O)N[C@@H](C(=O)N1CCC[C@H]1C(=O)N[C@H](C(=O)N[C@@H](CCCCN)C(=O)N[C@@H](CC(C)C)C(=O)N[C@@H](CCCCNC(=O)CC[C@H](NC(=O)CCCCCCCCCCCCCCC(=O)O)C(=O)O)C(=O)N[C@@H](CCCCN)C(=O)N[C@H](C(=O)N[C@@H](CC(C)C)C(=O)N[C@@H](CC(C)C)C(=O)N[C@@H](CCC(=O)O)C(=O)N[C@@H](CCC(N)=O)C(=O)N[C@@H](CCC(=O)O)C(=O)N[C@@H](CCCCN)C(=O)N[C@@H](CCC(N)=O)C(=O)N[C@@H](CCCCN)C(=O)N[C@@H](C)C(=O)N[C@@H](CCC(N)=O)C(=O)N[C@@H](CCCNC(=N)N)C(=O)N[C@@H](CCC(=O)O)C(=O)N[C@@H](CCC(N)=O)C(=O)N[C@@H](C)C(=O)N[C@@H](CCC(=O)O)C(=O)N[C@H](C(=O)N[C@@H](CC(N)=O)C(=O)NC(C)(C)C(=O)N[C@@H](CCC(N)=O)C(=O)N[C@H](C(=O)N[C@@H](CC(C)C)C(=O)N[C@@H](C)C(=O)N[C@@H](CCC(N)=O)C(=O)N[C@H](C(N)=O)C(C)C)[C@@H](C)CC)[C@@H](C)O)[C@@H](C)CC)[C@@H](C)CC)C(C)C)C(C)C
Emax (% I) (CRF1R receptor): 7% | EC50 [nM] (cAMP) [1]: 0.15 nM
